Target: TTP TZF (RBD) (Homo sapiens, UniProt P26651 102-170)
Assay: NMR

Sequence of TTP TZF (RBD) (P26651 102-170): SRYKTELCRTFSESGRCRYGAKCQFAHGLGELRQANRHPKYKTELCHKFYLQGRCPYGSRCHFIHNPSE

B1: ARE13 (NMR) (ssRNA)
RNA: UUUUAUUUAUUUU
- binding result: binds
